# Laboratory results: the supplement of paper PMC12764529
# ± gives the half width of the 95% confidence interval.
# Columns and labels:
# [1] = folding stability dG unfold (combined trypsin and chymotrypsin); higher = more stable
# Method in brief: (§1)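 How resistant each design was to proteolysis was captured as K50, inferred by Bayesian fitting of sequencing counts. Unfolding free energy was then derived relative to a sequence-predicted unfolded-state K50 and a shared folded-state K50, per protease or combined. Digestion used trypsin and chymotrypsin at 11 threefold-diluted concentrations plus a no-protease condition, on mini-proteins under 80 residues without cysteine in a PA-tagged cDNA display construct. Designs were kept only when AlphaFold2 dimer inter-PAE was above 15.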
# [2] = folding stability dG unfold from chymotrypsin proteolysis; higher = more stable
# Method in brief: as §1
# [3] = folding stability dG unfold from trypsin proteolysis; higher = more stable
# Method in brief: as §1
Sequence,folding stability dG unfold [1],folding stability dG unfold [2],folding stability dG unfold [3]
SMVVPVLIEKPYTSPEELEEFKKEAEELVKKLAEETGYPIKVLETKYTTDPNTNVVSLTLVVEIVSPELNSA [r9_105_JUSTAS],2.45 ± 0.17 kcal/mol,2.6 ± 0.14 kcal/mol,1.97 ± 0.1 kcal/mol
SAGGSAGGSDKIVERLQKRFPNVRISNIQPTPDGVTIQIENPDGKEFTIPYDELEKHGIEIEPSAGGSAGGS [r12_3_TrROS],0.456 ± 0.16 kcal/mol,0.595 ± 0.085 kcal/mol,0.217 ± 0.17 kcal/mol
SAGGSAGGSAMTIKVEVTVKVKVKLENGETKEKEVKVTVEIELPPLTKEELEKNKELLKKLLSAGGSAGGSA [r18_114_TrROS_Hall],2.42 ± 0.16 kcal/mol,2.53 ± 0.08 kcal/mol,2.42 ± 0.14 kcal/mol
SAGGMTTTTVEVKRLPNGSIERTLKTTVPLPNGDLVVTTTKSIVYREDGKVVKEEVLETETTLLPATSAGGS [r8_36_JUSTAS],2.77 ± 0.074 kcal/mol,2.92 ± 0.077 kcal/mol,2.58 ± 0.082 kcal/mol
SAGGEVELKIKIEIRVELNEDGELKVEIKIEIELRPKPEPELTEEERLAEELRKKYPGLSKEELEALLSAGG [r13_136_TrROS_Hall],2.32 ± 0.27 kcal/mol,1.63 ± 0.13 kcal/mol,2.87 ± 0.32 kcal/mol
SAGGSAGGSAGGMIAVLTYKDGTVRDFGPTASLEEILSIPADEIVRIEVRPVLPELGDLLSAGGSAGGSAGG [r7_190_TrMRF],0.251 ± 0.07 kcal/mol,-0.859 ± 0.31 kcal/mol,0.59 ± 0.018 kcal/mol
SAGGSAGGVERIKKLLEELGAEVVKVEKLENGKTLIYIKVKSEEQREALKALLPEEDIEIIEPESAGGSAGG [r6_83_TrROS_Hall],4.43 ± 0.17 kcal/mol,4.47 ± 0.17 kcal/mol,4.69 ± 0.58 kcal/mol
SKKKKEKKKKEKEKKEKKKVIVLSEEELLEKVRELAKKGKKVKIVVKTPDKELAERLAKEAEELGVEVEVSA [r9_468_TrROS_Hall],1.31 ± 0.13 kcal/mol,1.32 ± 0.027 kcal/mol,1.45 ± 0.059 kcal/mol
SAGGSAGGSKKVEIKVKVKITNENGETLEVTATIVFDEKTGELYIYDEKTGKVYKISLDDIEPSAGGSAGGS [r12_772_TrROS_Hall],3.53 ± 0.09 kcal/mol,3.94 ± 0.077 kcal/mol,2.03 ± 0.082 kcal/mol
SAGKKKKYKIKIKIEISEDGTIKITIEIFDKNGKLVKKIEITIKLPKVKLSEEELKEAAKKGDLEKALKSAG [r5_944_TrROS_Hall],2.95 ± 0.7 kcal/mol,3.6 ± 0.28 kcal/mol,2.23 ± 0.28 kcal/mol
SAGGSAGGSGAEEIAKALKELGVKKVEITVERNENGELTVTVRVEVEAPPPKVEVKTEEELKKSAGGSAGGS [r12_246_TrROS_Hall],0.939 ± 0.21 kcal/mol,1.01 ± 0.14 kcal/mol,0.527 ± 0.1 kcal/mol
SAGRIYVDPNMVVIEIKYPDKPMPIIIPFKDPEDQEMAKELVKKIMRYLRNEGLPVEVEVEVFPPGQPVSAG [r5_823_TrROS],2.11 ± 0.11 kcal/mol,2.41 ± 0.026 kcal/mol,1.51 ± 0.026 kcal/mol
SAGGSAKKKKKKKVKKVITIPVGGYKIEITYNKKTKKITVKVYKKNKNGKLLSEEEVKKLVKELLSSAGGSA [r15_735_TrROS_Hall],2.58 ± 0.53 kcal/mol,3.4 ± 0.2 kcal/mol,1.73 ± 0.1 kcal/mol
SAGGSAGGSAGGKKIKIPKKVKVKVVKKKDGKLLVYLEKTGKVIELPVEDLKNITAEDLSAGGSAGGSAGGS [r10_709_TrROS_Hall],0.408 ± 0.094 kcal/mol,-0.63 ± 0.3 kcal/mol,0.976 ± 0.038 kcal/mol
SKIRIEVPGETIEITVPPGATVEFDEETGEITITLPDGSKRTIRLPPNAKIEVVDGEIRITIRLPPPPEPSA [r9_653_TrROS_Hall],2.93 ± 0.21 kcal/mol,2.78 ± 0.2 kcal/mol,3.15 ± 0.12 kcal/mol
SPVKIRIIVPKGMDPEMANFIVKEIMKHLGLPPGAPVEILPWEDLQKNPDVHQALEEAEKEGADIVILIRSA [r9_1147_TrROS],3.84 ± 0.1 kcal/mol,4.16 ± 0.16 kcal/mol,3.08 ± 0.14 kcal/mol
SAWNFKIEEVEVDPNDGRIWFTVKIPPNNPELAEEIAEELQDYGIKVKLINPDLPPGQTIIVQIEVKDPSAG [r14_354_TrROS],1.83 ± 0.18 kcal/mol,2.09 ± 0.18 kcal/mol,1.3 ± 0.096 kcal/mol
SAGGSAMSLSDIKDVDVYRNPNGWYTAKLKIKDPNNGKDKEVNIHVPPGQTPEKAKNIAREILKELSAGGSA [r15_181_TrROS],1.14 ± 0.086 kcal/mol,1.43 ± 0.11 kcal/mol,0.606 ± 0.03 kcal/mol
SAGGSAGGSAGGMKLVITLKDPNSDKTYTVTLPIEDKSPEEVIQEIEEKLGVEVVEVKPESAGGSAGGSAGG [r7_590_JUSTAS],2.02 ± 0.06 kcal/mol,2.04 ± 0.021 kcal/mol,2.06 ± 0.083 kcal/mol
SAGGSAGGSAEYRVVVVPPVPTVLIFVKPDRVYVVDLDPATGRATIRPVNVPPNVLPESLLTSAGGSAGGSA [r18_59_TrMRF],1.52 ± 0.056 kcal/mol,1.67 ± 0.06 kcal/mol,1.27 ± 0.02 kcal/mol
SAGGSAGGSPESVTFPVGDYLVTVTRNPEDGSLTVTVYDPKTGKPIVLPPEVLAENPDLAENLSAGGSAGGS [r12_817_TrMRF],2.68 ± 0.056 kcal/mol,2.35 ± 0.058 kcal/mol,3.14 ± 0.11 kcal/mol

Sequence,folding stability dG unfold [1],folding stability dG unfold [2],folding stability dG unfold [3]
SAGGSAGGSAGGWNYIIFTIRYEFEYKDPNGKTMKHEVEITIIIPIPPIKRDEDGKYKLSAGGSAGGSAGGS [r10_168_TrROS],2.79 ± 0.28 kcal/mol,3.35 ± 0.17 kcal/mol,2.31 ± 0.17 kcal/mol
SMEIDPGPGVIRLRFEAPLVDPEHPRLLTLRLEPVIEVSPDGTLRVREVRLVGFSPDGELLFERPFTLDLSA [r9_383_TrMRF],2.16 ± 0.066 kcal/mol,2.28 ± 0.06 kcal/mol,1.865 ± 0.017 kcal/mol
SAGGSAGGEEAREAIEQELRARGINVTEIKVEEKKLTPDKTVVTFTVTARLPDSELTSTFTVVDSAGGSAGG [r6_533_JUSTAS],-0.173 ± 0.13 kcal/mol,-0.92 ± 0.81 kcal/mol,0.141 ± 0.19 kcal/mol
SAGGKKKKVKKKKPVYRIKIKLKNGEEIEIEAKSKEEAEKAAKELLKKLFPEKKIDEIKIVEIEKLPPSAGG [r13_887_TrROS_Hall],2.69 ± 0.16 kcal/mol,2.69 ± 0.12 kcal/mol,2.54 ± 0.061 kcal/mol
SAGMKLTVTITDPATGKTYTITVKPGGETTVTNGSSTTSISIPTSDPKKVEELAEEIEPKGYTATITLESAG [r5_791_JUSTAS],1.3 ± 0.086 kcal/mol,1.36 ± 0.17 kcal/mol,1.17 ± 0.018 kcal/mol
SMPKIEVKIEYDEETGEITVEIRVPETEEEALEALRKLAEEAGLEVEVEEVEIEEVDGELVIRVKVRIKPSA [r9_164_TrROS_Hall],3.08 ± 0.28 kcal/mol,2.44 ± 0.16 kcal/mol,3.57 ± 0.21 kcal/mol
KKVKIEIEVLSKTEEGYVMIAKAKYEEVEKVFEKPYKSKNPIETIKKIVKELFPGPEVTEVKVKYYPKEKKS [r1_399_TrMRF],1.35 ± 0.17 kcal/mol,1.47 ± 0.11 kcal/mol,1.11 ± 0.053 kcal/mol
SAGGSAKKKKGKKKKKIKKIKIKLKLPPGAEIVKIDKEKGVIYIRNKKTNKIYKIDLKTGKIVEIPSAGGSA [r15_452_TrROS_Hall],3.27 ± 0.39 kcal/mol,3.66 ± 0.26 kcal/mol,1.86 ± 0.17 kcal/mol
SAGGSAGGSAGKKSYVLIKVKNPKTKETHTIVVPEENLEEVLKALASQPNVKVVDIERFPSAGGSAGGSAGG [r11_692_TrROS_Hall],3.95 ± 0.12 kcal/mol,4.11 ± 0.065 kcal/mol,3.65 ± 0.19 kcal/mol
SAGGMIPEELIRKLFEDGKPVPLEQIVELIEKLTGRPVRLEEGEDKFRIVVLDPDTPELLDEIEIDFSAGGS [r8_105_TrMRF],1.55 ± 0.091 kcal/mol,1.57 ± 0.028 kcal/mol,1.43 ± 0.086 kcal/mol
SAGGGMSTTTETTIRIYVKDPQGNPVFVAELTVTVTTSPSGEVTIHLPPEFLKALPPNYTIAKIEVTSAGGS [r16_295_JUSTAS],4.06 ± 0.083 kcal/mol,4.13 ± 0.086 kcal/mol,3.94 ± 0.21 kcal/mol
SAGGSMDLRVVVVGEDGKVLELPAGEEVSLPDVVAFFSELGDFEVEAHPESGTLTIRVPKGVLEEASAGGSA [r2_164_TrMRF],0.728 ± 0.046 kcal/mol,0.804 ± 0.042 kcal/mol,0.543 ± 0.02 kcal/mol
SAGGKPKPGQEVEMKMIMLMVTKPGEITIMRMKMEMRVNPDGNVQMDMKMEMVRVPLSKDQAKELLNASAGG [r13_544_TrROS],3.69 ± 0.36 kcal/mol,4.25 ± 0.24 kcal/mol,2.68 ± 0.07 kcal/mol
SSPKILTESELKITIPMTDPETGKPINLEVTIPLLVDPATGTVEVLEIKITGPEEVQEILKKLIEKLIKESA [r9_619_JUSTAS],2.11 ± 0.22 kcal/mol,2.15 ± 0.12 kcal/mol,2.14 ± 0.23 kcal/mol
SAGGSAGGSMLPLPIESIEVVPRRAPGGKTYYVAFIRLKADGKPLVIEFEADNPGEALEKLEASAGGSAGGS [r20_238_TrMRF],1.34 ± 0.14 kcal/mol,1.46 ± 0.11 kcal/mol,1.14 ± 0.046 kcal/mol
SAGGSAGGSAGGSKTIEIELPGMSPEEIAAAIAEELGLDDVKITVERTEDGLLRVTIEVSAGGSAGGSAGGS [r4_408_TrROS_Hall],1.76 ± 0.057 kcal/mol,1.81 ± 0.049 kcal/mol,1.57 ± 0.057 kcal/mol
SAGGSAGGSAMEELVKEAIKEGKPGEVVLIRNEDGSVFALTVKDGKIEIKKLEEVKEVVEESAGGSAGGSAG [r3_244_TrROS_Hall],1.15 ± 0.17 kcal/mol,1.06 ± 0.093 kcal/mol,1.45 ± 0.09 kcal/mol
SAEIEVKPGEELEITVNGKKLRITVEKVEVRVEVKELPPPPPPEVEVYTLTRDPATDELRLERRTAEELASA [r9_881_TrROS_Hall],0.23 ± 0.15 kcal/mol,0.352 ± 0.24 kcal/mol,0.0576 ± 0.22 kcal/mol
SAGGSAGGSAGGELNIDDIKIDWFPADDMDDRYIFTEKIRGPNGKPTMEVTFWLPAGDLSAGGSAGGSAGGS [r10_155_TrROS],0.00836 ± 0.18 kcal/mol,-0.261 ± 0.62 kcal/mol,0.262 ± 0.068 kcal/mol
SAGGSAMTTTTSTDPATNKTYVTVTFPKDEALVEEVKEELKKKGIKEIKVYEFPENDLVRVEITVGSAGGSA [r2_358_JUSTAS],0.685 ± 0.14 kcal/mol,0.767 ± 0.13 kcal/mol,0.452 ± 0.098 kcal/mol
